From patent US5876971A, “Thrombin inhibitor from the saliva of protostomia” (Schering Aktiengesellschaft, priority 1992, dated 1999)

Experiments:
thrombin [1] = test: Inhibition of the thrombin activity in the clotting test (fibrinogen cleavage); type: biochemical
Procedure: Inhibition of the thrombin activity in the clotting test
In a microtiterplate, which is coated with bovine serum albumin (0.1% in 0.1 mol/l of NaHCO3, pH 9.5), 80 μl of 20 mmol/l of HEPES, pH 7.4; […] of NaCl; 20 μl of 20 mmol/l of CaCl2; 100 μl of a diluted solution of the protein of the invention (5-50 ng) and 20 μl of thrombin (0.03 IU=0.03 International Units) are pipetted. After an incubation of 2 minutes at 37° C., 100 μl of fibrinogen (5 mg/ml) is added and incubated for 40 minutes at 37° C. Then, the absorption is measured at 405 nm. […] (See FIG. 3)

thrombin [2] = test: Inhibition of the thrombin activity in the amidolytic test (substrate S2238); type: biochemical; conditions: inhibitor 6 nmol/l; thrombin 0.03 IU
Procedure: Inhibition of the thrombin activity in the amidolytic test
In a microtiterplate, 80 μl of 100 mmol/l of tris/HCl, pH 7.4; 150 mmol/l of NaCl and 0.03 IU ([…]) of thrombin and 100 μl of a diluted solution of the protein of the invention (32-630 ng) are incubated for 10 minutes at 37° C. and then mixed with 100 μl (50 nmol) of substrate S2238 (Kabi Vitrum). After an incubation of 30 minutes at 37° C., the absorption is measured at 405 nm. 630 ng (117 nmol/l) inhibits the activity of the thrombin to approximately 50%. […] (See FIG. 2)

thrombin [3] = biological target: thrombin
thrombin [4] = biological target: thrombin; remark: listed apart in the source
thrombin [5] = biological target: thrombin; remark: listed apart in the source
thrombin [6] = biological target: thrombin; remark: listed apart in the source

hirudin
inhibition of fibrinogen cleavage (clotting) (thrombin [1]; inhibitor 8 nmol/l (45 ng), thrombin 0.03 IU (1.27 nmol/l), absorption at 405 nm): complete inhibition | inhibition of thrombin activity in the amidolytic test (thrombin [2]): 85%

thrombin inhibitor purified from the saliva of Triatoma pallidipennis (protein of the invention, purified according to Example 1)
inhibition of the thrombin activity in the clotting test (fibrinogen cleavage, absorption at 405 nm) (thrombin [3]): 8 nmol/L | inhibition of thrombin-induced blood platelet aggregation (aggregometer) (thrombin [4]): 15 ng/mL | inhibition of the thrombin activity in the amidolytic test (substrate S2238, absorption at 405 nm); concentration giving approximately 50% inhibition (thrombin [5]): 117 nmol/L | lengthening of the thrombin time (plasma clotting after adding thrombin) (thrombin [6]): 35 nmol/L

B1: purified fraction: recombinant mature protein (Ti28=seq. id. no. 2) produced in E. coli, purified by ion exchange and thrombin affinity chromatography (protein)
chain: AEGDDCSLEKAMGDFKPEEFFNGTWYLAHGPDVTSPAVCQKFTTSGSKGFTQIVEIGYNKFESNVKFQCNQVDNKNDEQYSFKCKGSDNTEFEADFTFISVSYDNFALVCRSIIFTSQPKEDDYLVFERTKSDTDPDANEIC
inhibition of thrombin activity in the clotting test (qualitative) (thrombin [1]; material from transformed E. coli, concentration not given): same inhibitory activity as the saliva protein
